According to article PMC8864165, “Functional Effects of ARV-1502 Analogs Against Bacterial Hsp70 and Implications for Antimicrobial Activity” (Frontiers in Chemistry, 2022):
Square brackets hold non-standard residues; d marks the D form. Ends that are not written are not given here. Cf = 5(6)-carboxyfluorescein label; Ac6c = NC1(C(=O)O)CCCCC1

Tests used:
[1] = molecular target: T1, E. coli DnaK/DnaJ/GrpE-chaperone system (Escherichia coli, UniProt P0A6Y8 1-638; P08622 1-376; P09372 1-197); test: fluorescence polarisation; as the direct titration, but with the full chaperone system: DnaK, DnaJ and GrpE (ratio 0.6:1.0:0.9) pre-incubated for 30 min at room temperature; details: both partners purified
T1 construct: also called full chaperone system (E. coli); source: E. coli (DE3) Rosetta pLysS, each purified; mixed (ratio 0.6:1.0:0.9) and pre-incubated for 30 min at room temperature

[2] = molecular target: T2, S. aureus DnaK/DnaJ/GrpE-chaperone system (Staphylococcus aureus, UniProt P99110 1-610; P63971 1-379; P99086 1-208); test: as above; details: both partners purified
T2 construct: also called full chaperone system (S. aureus); source: E. coli (DE3) Rosetta pLysS, each purified; mixed (ratio 0.6:1.0:0.9) and pre-incubated for 30 min at room temperature

[3] = molecular target: T3, S. aureus DnaK (Staphylococcus aureus, UniProt P99110 1-610); test: fluorescence polarisation; direct titration: protein serially diluted twofold in 23 steps, Cf-labeled peptide added (20 µL of 40 nmol/L to 20 µL); FP-buffer 20 mmol/L Tris-HCl, 150 mmol/L KCl, 5 mmol/L MgCl2, 1 mmol/L NaN3, 2 mmol/L DTT, pH 7.5; 2 h, 28°C, dark; details: both partners purified
T3 construct: source: E. coli (DE3) Rosetta pLysS, purified (IMAC, TEV cleavage, second IMAC)

[4] = molecular target: T4, E. coli DnaK (Escherichia coli, UniProt P0A6Y8 1-638); test: fluorescence polarisation; competition screen at one concentration: unlabeled peptide 5 µmol/L with 5 µmol/L E. coli DnaK, or 35 µmol/L with 16 µmol/L S. aureus DnaK, 90 min 28°C, then Cf-ARV-1502 (10 µL of 80 nmol/L), 90 min 28°C; duplicates; FP normalized to ARV-1502; details: both partners purified
T4 construct: source: E. coli (DE3) Rosetta pLysS, purified (IMAC, TEV cleavage, second IMAC)

[5] = molecular target: T3, S. aureus DnaK; test: as above; details: both partners purified
[6] = molecular target: T4, E. coli DnaK; test: cell-based or functional assay
[7] = molecular target: T4, E. coli DnaK; test: fluorescence polarisation; direct titration: protein serially diluted twofold in 23 steps, Cf-labeled peptide added (20 µL of 40 nmol/L to 20 µL); FP-buffer 20 mmol/L Tris-HCl, 150 mmol/L KCl, 5 mmol/L MgCl2, 1 mmol/L NaN3, 2 mmol/L DTT, pH 7.5; 2 h, 28°C, dark; details: both partners purified
[8] = molecular target: T5, E. coli DnaJ (Escherichia coli, UniProt P08622 1-376); test: as above; details: both partners purified
T5 construct: source: E. coli (DE3) Rosetta pLysS, purified (IMAC, TEV cleavage, second IMAC)
T5 sequence: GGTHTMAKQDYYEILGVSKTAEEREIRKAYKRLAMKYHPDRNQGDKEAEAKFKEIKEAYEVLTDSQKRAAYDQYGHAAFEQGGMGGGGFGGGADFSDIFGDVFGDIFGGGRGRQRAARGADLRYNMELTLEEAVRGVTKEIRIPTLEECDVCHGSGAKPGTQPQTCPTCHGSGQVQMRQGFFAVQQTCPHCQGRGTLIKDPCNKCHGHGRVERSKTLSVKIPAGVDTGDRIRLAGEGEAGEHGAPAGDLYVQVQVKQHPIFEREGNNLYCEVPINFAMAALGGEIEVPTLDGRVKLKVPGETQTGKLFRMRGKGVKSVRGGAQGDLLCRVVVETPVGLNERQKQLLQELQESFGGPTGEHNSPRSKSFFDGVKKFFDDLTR

[9] = molecular target: T6, E. coli GrpE (Escherichia coli, UniProt P09372 1-197); test: as above; details: both partners purified
T6 construct: also called co-chaperone GrpE; nucleotide exchange factor GrpE; source: E. coli (DE3) Rosetta pLysS, purified (IMAC, TEV cleavage, second IMAC)
T6 sequence: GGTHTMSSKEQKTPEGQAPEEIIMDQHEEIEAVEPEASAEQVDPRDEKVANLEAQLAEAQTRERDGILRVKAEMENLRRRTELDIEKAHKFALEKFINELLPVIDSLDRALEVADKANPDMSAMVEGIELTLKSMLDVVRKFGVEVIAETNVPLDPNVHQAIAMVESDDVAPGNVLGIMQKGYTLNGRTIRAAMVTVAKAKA

[10] = molecular target: T7, S. aureus GrpE (Staphylococcus aureus, UniProt P99086 1-208); test: as above; details: both partners purified
T7 construct: source: E. coli (DE3) Rosetta pLysS, purified (IMAC, TEV cleavage, second IMAC)
T7 sequence: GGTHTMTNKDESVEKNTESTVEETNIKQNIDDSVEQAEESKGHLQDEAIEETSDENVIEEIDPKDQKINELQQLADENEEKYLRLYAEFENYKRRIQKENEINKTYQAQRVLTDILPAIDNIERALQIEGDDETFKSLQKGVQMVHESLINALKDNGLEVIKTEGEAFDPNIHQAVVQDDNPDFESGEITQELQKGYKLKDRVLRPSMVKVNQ

Binder | Kd [1] [nM] | Kd [2] [µM] | Kd [3] [µM] | binding result [4] | binding result [5] | other results
Cf-RPFFPRPYLPLPRPPRPVR (source: synthetic peptide, in-house (Fmoc/tBu chemistry on Rink amide resin), RP-HPLC purified) [Cf-peptide 102] | 600 | 1.6 | 1.6 | – | – | –
[Ac6c]RPFFPRPYLPFPRPPRPVR-NH2 (source: synthetic peptide, bought: ABclonal, Inc) [peptide 103] | – | – | – | binds | binds | –
[Ac6c]RPDKPRPYLPRPRPPRPVR-NH2 (N-terminus assumed; SMILES CC(C)C[C@H](NC(=O)[C@H](Cc1ccc(O)cc1)NC(=O)[C@@H]1CCCN1C(=O)[C@H](CCCNC(=N)N)NC(=O)[C@@H]1CCCN1C(=O)[C@H](CCCCN)NC(=O)[C@H](CC(=O)O)NC(=O)[C@@H]1CCCN1C(=O)[C@H](CCCNC(=N)N)NC(=O)C1(N)CCCCC1)C(=O)N1CCC[C@H]1C(=O)N[C@@H](CCCNC(=N)N)C(=O)N1CCC[C@H]1C(=O)N[C@@H](CCCNC(=N)N)C(=O)N1CCC[C@H]1C(=O)N1CCC[C@H]1C(=O)N[C@@H](CCCNC(=N)N)C(=O)N1CCC[C@H]1C(=O)N[C@H](C(=O)N[C@@H](CCCNC(=N)N)C(N)=O)C(C)C) [ARV-1502] | – | – | – | – | – | refolding activity of the E. coli DnaK/DnaJ/GrpE-chaperone system (denatured luciferase refolding assay) at ARV-1502 concentrations ≥50 µmol/L, relative to no peptide [6]: ~60%
Cf-RPDKPRPYLPRPRPPRPVR (also called 5(6)-carboxyfluorescein-labeled ARV-1502; source: synthetic peptide, in-house (Fmoc/tBu chemistry on Rink amide resin), RP-HPLC purified) [Cf-ARV-1502] | 3100 | 30.2 | 25.1 | – | – | Kd [7]: 200 nM; Kd [8]: ~33.4 µM; Kd [9]: ~213 µM; Kd [10]: ~138 µM
[Ac6c]RPFFPRPYLPRKRPPRPVR-NH2 (source: synthetic peptide, bought: ABclonal, Inc) [peptide 105] | – | – | – | binds | binds | –
[Ac6c]RPKKPRPYLPRLRPPRPVR-NH2 (N-terminus assumed; SMILES CC(C)C[C@H](NC(=O)[C@H](CCCNC(=N)N)NC(=O)[C@@H]1CCCN1C(=O)[C@H](CC(C)C)NC(=O)[C@H](Cc1ccc(O)cc1)NC(=O)[C@@H]1CCCN1C(=O)[C@H](CCCNC(=N)N)NC(=O)[C@@H]1CCCN1C(=O)[C@H](CCCCN)NC(=O)[C@H](CCCCN)NC(=O)[C@@H]1CCCN1C(=O)[C@H](CCCNC(=N)N)NC(=O)C1(N)CCCCC1)C(=O)N[C@@H](CCCNC(=N)N)C(=O)N1CCC[C@H]1C(=O)N1CCC[C@H]1C(=O)N[C@@H](CCCNC(=N)N)C(=O)N1CCC[C@H]1C(=O)N[C@H](C(=O)N[C@@H](CCCNC(=N)N)C(N)=O)C(C)C, source: synthetic peptide, bought: ABclonal, Inc) [peptide 45] | – | – | – | binds | binds | –
